Assay results from IntAct's records for PubMed 15895076.

B1: Dynamin-2 (Rattus norvegicus (Rat)), P39052 (parent)
chain: MGNRGMEELIPLVNKLQDAFSSIGQSCHLDLPQIAVVGGQSAGKSSVLENFVGRDFLPRGSGIVTRRPLILQLIFSKTEYAEFLHCKSKKFTDFDEVRQEIEAETDRVTGTNKGISPVPINLRVYSPHVLNLTLIDLPGITKVPVGDQPPDIEYQIKDMILQFISRESSLILAVTPANMDLANSDALKLAKEVDPQGLRTIGVITKLDLMDEGTDARDVLENKLLPLRRGYIGVVNRSQKDIEGRKDIRAALAAERKFFLSHPAYRHMADRMGTPHLQKTLNQQLTNHIRESLPTLRSKLQSQLLSLEKEVEEYKNFRPDDPTRKTKALLQMVQQFGVDFEKRIEGSGDQVDTLELSGGARINRIFHERFPFELVKMEFDEKDLRREISYAIKNIHGVRTGLFTPDLAFEAIVKKQVVKLKEPCLKCVDLVIQELISTVRQCTSKLSSYPRLREETERIVTTYIREREGRTKDQILLLIDIEQSYINTNHEDFIGFANAQQRSTQLNKKRAIPNQGEILVIRRGWLTINNISLMKGGSKEYWFVLTAESLSWYKDEEEKEKKYMLPLDNLKIRDVEKGFMSNKHVFAIFNTEQRNVYKDLRQIELACDSQEDVDSWKASFLRAGVYPEKDQAENEDGAQENTFSMDPQLERQVETIRNLVDSYVAIINKSIRDLMPKTIMHLMINNTKAFIHHELLAYLYSSADQSSLMEESAEQAQRRDDMLRMYHALKEALNIIGDISTSTVSTPVPPPVDDTWLQNTSSHSPTPQRRPVSSVHPPGRPPAVRGPTPGPPLIPMPVGATSSFSAPPIPSRPGPQNVFANNDPFSAPPQIPSRPARIPPGIPPGVPSRRAPAAPSRPTIIRPAEPSLLD
B2: Focal adhesion kinase 1 (Homo sapiens), Q05397 (parent)
chain: MAAAYLDPNLNHTPNSSTKTHLGTGMERSPGAMERVLKVFHYFESNSEPTTWASIIRHGDATDVRGIIQKIVDSHKVKHVACYGFRLSHLRSEEVHWLHVDMGVSSVREKYELAHPPEEWKYELRIRYLPKGFLNQFTEDKPTLNFFYQQVKSDYMLEIADQVDQEIALKLGCLEIRRSYWEMRGNALEKKSNYEVLEKDVGLKRFFPKSLLDSVKAKTLRKLIQQTFRQFANLNREESILKFFEILSPVYRFDKECFKCALGSSWIISVELAIGPEEGISYLTDKGCNPTHLADFTQVQTIQYSNSEDKDRKGMLQLKIAGAPEPLTVTAPSLTIAENMADLIDGYCRLVNGTSQSFIIRPQKEGERALPSIPKLANSEKQGMRTHAVSVSETDDYAEIIDEEDTYTMPSTRDYEIQRERIELGRCIGEGQFGDVHQGIYMSPENPALAVAIKTCKNCTSDSVREKFLQEALTMRQFDHPHIVKLIGVITENPVWIIMELCTLGELRSFLQVRKYSLDLASLILYAYQLSTALAYLESKRFVHRDIAARNVLVSSNDCVKLGDFGLSRYMEDSTYYKASKGKLPIKWMAPESINFRRFTSASDVWMFGVCMWEILMHGVKPFQGVKNNDVIGRIENGERLPMPPNCPPTLYSLMTKCWAYDPSRRPRFTELKAQLSTILEEEKAQQEERMRMESRRQATVSWDSGGSDEAPPKPSRPGYPSPRSSEGFYPSPQHMVQTNHYQVSGYPGSHGITAMAGSIYPGQASLLDQTDSWNHRPQEIAMWQPNVEDSTVLDLRGIGQVLPTHLMEERLIRQQQEMEEDQRWLEKEERFLKPDVRLSRGSIDREDGSLQGPIGNQHIYQPVGKPDPAAPPKKPPRPGAPGHLGSLASLSSPADSYNEGVKLQPQEISPPPTANLDRSNDKVYENVTGLVKAVIEMSSKIQPAPPEEYVPMVKEVGLALRTLLATVDETIPLLPASTHREIEMAQKLLNSDLGELINKMKLAQQYVMTSLQQEYKKQMLTAAHALAVDAKNLLDVIDQARLKMLGQTRPH
partner: B1 chain

Variants of: B1
Settings: with fak1_mouse Ptk2, P34152

| Variant | effect of a mutation on the interaction |
| --- | --- |
| K44E | increasing interaction |

Variants of: B2
Settings: with dyn2_rat Dnm2, P39052

| Variant | effect of a mutation on the interaction |
| --- | --- |
| Y925F | disrupting interaction |
